According to the supplement of paper PMC12764529:
± gives the half width of the 95% confidence interval.

experiment: folding stability dG unfold from trypsin proteolysis; higher = more stable
Summary of the method: (§1)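 Unfolding free energy was derived, per protease or combined, by relating Bayesian-fitted K50 values from sequencing counts to a sequence-predicted unfolded-state K50 and a shared folded-state K50. The underlying digests exposed cysteine-free mini-proteins under 80 residues, in a PA-tagged cDNA display construct, to trypsin and chymotrypsin at 11 threefold-diluted concentrations and to a no-protease condition. A filter kept only designs with AlphaFold2 dimer inter-PAE above 15.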

Sequence | folding stability dG unfold [kcal/mol]
SAGGSAGGSPPPDIKVEVESYENPDGQRYYRVTITIDDGRPFDIWMPPGMSPSEAKNWLKDLLSAGGSAGGS [r12_1019_TrROS] | 3.35 ± 0.08
SAGGSKKKKPEKPPVVLIKITVEETGKEITIPLEELRNMSAEELAKRIAEELRERYPGLKVRVEIVSAGGSA [r2_392_TrROS_Hall] | 1.49 ± 0.071
SAGGSAGGSAGGGSSMITLERESEPGETFEFNFPGVSEVTVTEVIPGDGKVTVKVEVTSPSAGGSAGGSAGG [r7_292_JUSTAS] | 0.782 ± 0.059
SAGGSAGGSADYFMVVIKYYPPNGEKQEHPFSVPFKDEEDLKDEIKEQAPPGREVEIEIFPMSAGGSAGGSA [r18_60_TrROS] | 0.956 ± 0.083
STLEQILDAIESMPPGWVFRIKIHHPNGEPHEHRFNMTYDDIKAQLENMIDHHPGQPIKIKIEFMPPEDFSA [r9_37_TrROS] | 2.97 ± 0.11
SAGGSAGGPEIDLKEVRVFYPPGGERLVLVEVRDDVPLEQVRDWVLERGGEFYRELPNQILVRGSAGGSAGG [r6_543_TrMRF] | 0.0648 ± 0.21
SAGGSAGGSAGVVDEVKAALEPQGLKVLSVTPGSSSVTVTVLDPKKGETTTFTIPLDDPLSAGGSAGGSAGG [r11_428_JUSTAS] | 1.02 ± 0.029
SAGGSAGGSEWYEIRIPGIKGSADDLVEDIQDWFPAPNMKISIEEVEPMGDGLPGMTIKLRVNSAGGSAGGS [r12_348_TrROS] | 0.227 ± 0.033
SALPLPSSAKVELEWELVGVDPGSKGAKVYYRRTLKVTFPTGSLTVTYLVEYDPETGTFSWSITSVSPESAG [r14_293_TrMRF] | 4.1 ± 0.19
SAGGSAGGSAKPKVKIEVEERRVLTLDPETGELKEERVLVVRIEVEPGMSEEEAKKLLEELASAGGSAGGSA [r18_438_TrROS_Hall] | 1.7 ± 0.079
SAGGSAGGSAGGKPKVIVIEGMSLEEIKALLAELPEDVTIVVRLPDGSTRTLTVRLPEPSAGGSAGGSAGGS [r10_514_TrROS_Hall] | 1.78 ± 0.077
SAGGSAGGSAGGGLRKITFETPLSDFEELVKALGLNVVSAEVEPGAGGLAKVTLLVEEGSAGGSAGGSAGGS [r10_999_TrMRF] | 1.04 ± 0.013
SGATVTVSKDGRTYTVTVSPNATVTVEVRDPTSTSTYTQTVPPGQPTTVSLPLPSDVSSSVTIASIDVGASA [r9_1152_JUSTAS] | 0.439 ± 0.025
SAGGGKKYRVTLELTLPDGTKLTLEFEFEVVPPAVPKPVVTTSLDDIAEFDPETGTAIDKKNKKPIPLPSAG [r5_807_TrMRF] | 1.5 ± 0.12
SAGGSAGSGFEEEAAAAFAASAGAMTLTVVEREPDSYTVATVTRTPGTGAPTVTVTTLSPETLAAASAGGSA [r15_156_JUSTAS] | 0.904 ± 0.048
SAGGSAGGSNELLKKLGLKPDQTILVLARPGEIEKLRKEKPIKRIEVTPLPDDLYLYRIEVEGSAGGSAGGS [r12_750_TrMRF] | -0.0878 ± 0.16
SAGMDPSDPNSITTLTTEVEPLPDGSTRVTTYTKLPDGTIVKNVTTLDPAGNVLTTTTTPIPPEALNASAGG [r19_285_JUSTAS] | 3.56 ± 0.17
SAGGSAGGSKIPPGEPVTLPIFFIIWDPENGRPYAMRMEITFDAPDGNITKMNEEVIPPGQPFSAGGSAGGS [r12_868_TrROS] | 1.5 ± 0.056
SAGGSAGGSMITLTLPDEEALRAYVEQLVADAGTEITEVTVTPLAPDTVEAEVSIDPTDPVGLSAGGSAGGS [r12_647_JUSTAS] | 1.09 ± 0.022
SAGGSAGGSAGGSSVKLTLPDGSQVTVDIHPDGTATVTTFPGDTPSVTNMPVSAFQAALPSAGGSAGGSAGG [r7_178_JUSTAS] | 1.72 ± 0.44
SAGGSAGGSAGGDEEAIKEAAAAAPKDTTTVPVLLPDGKEVTLEVTWHPDGSRTITVRQSAGGSAGGSAGGS [r10_1017_JUSTAS] | -0.0882 ± 0.15

experiment: folding stability dG unfold from chymotrypsin proteolysis; higher = more stable
Summary of the method: as §1

Sequence | folding stability dG unfold [kcal/mol]
SAGGRIEVRPLEGSGAVLVRILDPELRKKLEEKFPDVTEILFPVEGAEDIPLEELRDRAIKEIEELIDSAGG [r19_298_TrMRF] | 0.187 ± 0.056
SAGGSAGGSAGSPKGKPPKPTIEYEPITFEIPNPDGQGFELEISIIRMPGNGQEFIGISFSAGGSAGGSAGG [r11_1024_TrROS] | 1.86 ± 0.069
SAGGSAGGSAGGSSDIVVTSETLPGPTRLVRITIPEKGETIELTLPASESIEQAVALLLSAGGSAGGSAGGS [r4_393_JUSTAS] | 0.0828 ± 0.4
SAGGSAKKKKVTITIEVVKNKETGEYLVRIKIKVDGKEYEIVMSEDELKALIDAGVKIEKIEVYPRSAGGSA [r15_783_TrROS_Hall] | 2.99 ± 0.082
SAGGMIKITVTLPDPARVRALFAELGLDVEVTPLPDGSVEIYLPEEYKEKVVEALPEEEVEITPVPPLSAGG [r13_261_JUSTAS] | 3.05 ± 0.17
SAGGMTLDQLKHALRHKKMQIHEPNPNGWYVTFQNPDGKPPTFPVKSDDELRDILRDAPGFEVEVQPVSAGG [r13_600_TrROS] | 0.84 ± 0.16
KTITIVIKNEDGELYVIKIKLKNGEEKEIVFKSLEELKNAIAKELGLSKEKIEIVEIKPLSPEELKELEKKS [r1_119_TrROS_Hall] | 3.96 ± 0.14
SAGGSAGGMKEVIEAALKDGSKEFYAPGFSPDKVYDVKITVYPGEGKVEIEVEGKRFTVSPEDLSAGGSAGG [r6_749_TrMRF] | 0.765 ± 0.18
SAGGSKWIPVSIWFPKGMTPEKVEEIARELVEAGYRIENIEVEREPDPNGREWYRVDITFRPPGDLSAGGSA [r2_442_TrROS] | 3.01 ± 0.089
SAGGSALPPHAVRVLVVTATDTDPGAAAARIAEEFRRKYPNTRVLTRPFDVPPGRPAVVAVVYVDESAGGSA [r15_916_TrMRF] | 2.54 ± 0.11
SMVIEIPDGTPLEEIIKKVKEAKEKGEPMEVVVTVPNDESVIQALKEAGFEVEVEKDEVKNVTLYKVKLPSA [r9_759_JUSTAS] | 2.53 ± 0.025
SAGGRKITINWNPNSGEIKVKIIWPDGEKEELPIPVPEGHDSPRQFADELKDNAQERFGEPVKIEITSAGGS [r8_166_TrROS] | -0.793 ± 0.21
SAGGSKKKIEKIEIEIEIKNKDGKTYKIKAEIEKVELKDGKVAKIRLEIYNENGEKIAEFEFEIKISAGGSA [r2_215_TrROS_Hall] | 4.03 ± 0.19
SAEKEYKVKVKVKIEIVELSEEELENLPPGALVIEVDGKLYLMRIEVEEVEVEEVPEEPEVDEETGELLSAG [r14_126_TrROS_Hall] | 3.86 ± 0.1
SAGGKKHYLVKVKATLTDKNGKKIAEVEFIFHFESPEELEEALKSIPSKYITEVKILSIEEIPEEEFSAGGS [r16_677_TrMRF] | 3.65 ± 0.091
SAGGSAGGSGSMSTPVTEEITLTLTRTTEDGTEVVITIKVKVVKDPTSDVVTVTEVLSETVEPSAGGSAGGS [r12_358_JUSTAS] | 2.54 ± 0.039
SAGGSAGGSAGGEPEVKVELRVELDEDGRLRVTLKVEFEDGTVERELELEAPVVFFPPEESAGGSAGGSAGG [r7_992_TrROS_Hall] | 2.07 ± 0.093
SAGGSAVEFTEPGAELLSEEKLPDGTVVKRVLLPDGSVLLLLPDNSIKTRSLSNPNTSLSEWDPELSAGGSA [r15_692_JUSTAS] | 0.332 ± 0.32
SAGGSAGGETITVKVKIKNEDGEEIEVEAEVTKNKDGSYTITIKNKETGETKVVPNATIEEVEPSAGGSAGG [r6_254_TrROS_Hall] | 2.19 ± 0.18
SAGGSASVLEEAIEEAKKLPPGSVVPLTVTVPTDGEPVVYEILITVHPGENTIEVEKKRKFSPERLSAGGSA [r15_724_JUSTAS] | 0.779 ± 0.1
SAGGSAIEIEPAPDNVLVVTADLPPNVPAEKLVEALKDLIPDVEFETSSSADGRHVIVLRLPPDVFSAGGSA [r15_1047_TrMRF] | 0.961 ± 0.06

Sequence | folding stability dG unfold [kcal/mol]
SAGGSAGGSPPPDIKVEVESYENPDGQRYYRVTITIDDGRPFDIWMPPGMSPSEAKNWLKDLLSAGGSAGGS [r12_1019_TrROS] | 3.964 ± 0.035
SAGGSKKKKPEKPPVVLIKITVEETGKEITIPLEELRNMSAEELAKRIAEELRERYPGLKVRVEIVSAGGSA [r2_392_TrROS_Hall] | 2.28 ± 0.11
SAGGSAGGSAGGGSSMITLERESEPGETFEFNFPGVSEVTVTEVIPGDGKVTVKVEVTSPSAGGSAGGSAGG [r7_292_JUSTAS] | 0.0882 ± 0.09
SAGGSAGGSADYFMVVIKYYPPNGEKQEHPFSVPFKDEEDLKDEIKEQAPPGREVEIEIFPMSAGGSAGGSA [r18_60_TrROS] | -0.0385 ± 0.17
STLEQILDAIESMPPGWVFRIKIHHPNGEPHEHRFNMTYDDIKAQLENMIDHHPGQPIKIKIEFMPPEDFSA [r9_37_TrROS] | 3.72 ± 0.077
SAGGSAGGPEIDLKEVRVFYPPGGERLVLVEVRDDVPLEQVRDWVLERGGEFYRELPNQILVRGSAGGSAGG [r6_543_TrMRF] | -0.179 ± 0.34
SAGGSAGGSAGVVDEVKAALEPQGLKVLSVTPGSSSVTVTVLDPKKGETTTFTIPLDDPLSAGGSAGGSAGG [r11_428_JUSTAS] | 1.28 ± 0.088
SAGGSAGGSEWYEIRIPGIKGSADDLVEDIQDWFPAPNMKISIEEVEPMGDGLPGMTIKLRVNSAGGSAGGS [r12_348_TrROS] | 0.361 ± 0.11
SALPLPSSAKVELEWELVGVDPGSKGAKVYYRRTLKVTFPTGSLTVTYLVEYDPETGTFSWSITSVSPESAG [r14_293_TrMRF] | 5.65 ± 0.095
SAGGSAGGSAKPKVKIEVEERRVLTLDPETGELKEERVLVVRIEVEPGMSEEEAKKLLEELASAGGSAGGSA [r18_438_TrROS_Hall] | 2.66 ± 0.12
SAGGSAGGSAGGKPKVIVIEGMSLEEIKALLAELPEDVTIVVRLPDGSTRTLTVRLPEPSAGGSAGGSAGGS [r10_514_TrROS_Hall] | 1.13 ± 0.077
SAGGSAGGSAGGGLRKITFETPLSDFEELVKALGLNVVSAEVEPGAGGLAKVTLLVEEGSAGGSAGGSAGGS [r10_999_TrMRF] | 1.843 ± 0.016
SGATVTVSKDGRTYTVTVSPNATVTVEVRDPTSTSTYTQTVPPGQPTTVSLPLPSDVSSSVTIASIDVGASA [r9_1152_JUSTAS] | 0.656 ± 0.088
SAGGGKKYRVTLELTLPDGTKLTLEFEFEVVPPAVPKPVVTTSLDDIAEFDPETGTAIDKKNKKPIPLPSAG [r5_807_TrMRF] | 3.1 ± 0.065
SAGGSAGSGFEEEAAAAFAASAGAMTLTVVEREPDSYTVATVTRTPGTGAPTVTVTTLSPETLAAASAGGSA [r15_156_JUSTAS] | 0.425 ± 0.13
SAGGSAGGSNELLKKLGLKPDQTILVLARPGEIEKLRKEKPIKRIEVTPLPDDLYLYRIEVEGSAGGSAGGS [r12_750_TrMRF] | 0.095 ± 0.38
SAGMDPSDPNSITTLTTEVEPLPDGSTRVTTYTKLPDGTIVKNVTTLDPAGNVLTTTTTPIPPEALNASAGG [r19_285_JUSTAS] | 3.85 ± 0.06
SAGGSAGGSKIPPGEPVTLPIFFIIWDPENGRPYAMRMEITFDAPDGNITKMNEEVIPPGQPFSAGGSAGGS [r12_868_TrROS] | 1.49 ± 0.17
SAGGSAGGSMITLTLPDEEALRAYVEQLVADAGTEITEVTVTPLAPDTVEAEVSIDPTDPVGLSAGGSAGGS [r12_647_JUSTAS] | 0.426 ± 0.065
SAGGSAGGSAGGSSVKLTLPDGSQVTVDIHPDGTATVTTFPGDTPSVTNMPVSAFQAALPSAGGSAGGSAGG [r7_178_JUSTAS] | 1.79 ± 0.21
SAGGSAGGSAGGDEEAIKEAAAAAPKDTTTVPVLLPDGKEVTLEVTWHPDGSRTITVRQSAGGSAGGSAGGS [r10_1017_JUSTAS] | 1.6 ± 0.098
